Source: patent US20110135657A1 (published 2011)
Numbering of substitutions follows the chain as printed.

How the values were obtained:
[1] = biological target: T1, soluble human β-Klotho (Biacore, Example 8) (human, UniProt Q86Z14 53-996, limits assumed); assay: Biacore competition binning; test antibody injected over soluble receptor captured on immobilized 24H11, 17D8 or 1A2.1
T1 construct: also called soluble β-Klotho
From the text: (§1) Soluble human FGFR1c/β-Klotho ECD-Fc complex or β-Klotho was then captured on the immobilized antibody surfaces.

[2] = biological target: human FGF21 receptor (FGF21R): full length human FGFR1c and full length human β-Klotho co-expressed at the … (human, UniProt P11362 22-822; Q86Z14 53-1044); assay: cell-based or functional assay
[3] = biological target: T2, denatured human FGFR1c (lysate of CHO cells stably expressing FGF21 receptor, non-reducing SDS-PAGE, blotted) (human, UniProt P11362 22-822); assay: Western blot of CHO/FGF21 receptor lysate, non-reducing SDS-PAGE (denatured protein)
T2 construct: DENATURED protein on a Western blot, not the native fold; also called denatured FGFR1c; denatured receptor proteins
T2 sequence (P11362 22-822 limits assumed): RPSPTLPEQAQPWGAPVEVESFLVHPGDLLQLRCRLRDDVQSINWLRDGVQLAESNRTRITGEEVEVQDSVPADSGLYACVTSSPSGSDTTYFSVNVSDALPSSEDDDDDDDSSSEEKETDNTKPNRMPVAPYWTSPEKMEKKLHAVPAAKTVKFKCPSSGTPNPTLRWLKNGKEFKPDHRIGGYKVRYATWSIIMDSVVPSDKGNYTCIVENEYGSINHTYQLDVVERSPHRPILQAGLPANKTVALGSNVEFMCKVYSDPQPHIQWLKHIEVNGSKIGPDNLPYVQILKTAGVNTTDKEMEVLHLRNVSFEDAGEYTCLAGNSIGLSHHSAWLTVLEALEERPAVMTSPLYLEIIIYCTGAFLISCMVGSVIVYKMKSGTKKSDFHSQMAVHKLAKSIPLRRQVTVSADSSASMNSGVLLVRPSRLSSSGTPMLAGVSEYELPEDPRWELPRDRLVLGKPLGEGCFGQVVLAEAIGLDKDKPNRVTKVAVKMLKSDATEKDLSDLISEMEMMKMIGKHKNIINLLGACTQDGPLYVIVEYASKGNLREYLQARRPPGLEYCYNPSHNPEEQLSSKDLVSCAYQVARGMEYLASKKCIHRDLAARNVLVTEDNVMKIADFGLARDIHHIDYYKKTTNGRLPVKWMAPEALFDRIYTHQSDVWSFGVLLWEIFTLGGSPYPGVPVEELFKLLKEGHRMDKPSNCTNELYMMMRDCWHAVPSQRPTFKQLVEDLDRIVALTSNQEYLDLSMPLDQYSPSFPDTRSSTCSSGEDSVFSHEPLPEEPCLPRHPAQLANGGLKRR
Method: 20 μl of cell lysate was loaded per lane on adjacent lanes separated with a molecular weight marker lane on 4-20% SDS-PAGE gels. Following electrophoresis, the gels were blotted onto 0.2μ nitrocellulose filters. The blots were treated with Tris-buffered saline/Triton-X (TBST) plus 5% non-fat milk (blocking buffer) for 30 minutes. The blots were then cut along the molecular weight marker lanes. […] Blots were incubated with the antibodies for one hour at room temperature, followed by three washes with TBST+1% milk. The blots were then probed with anti-human or anti-goat IgG-HRP secondary antibodies for 20 min. Blots were given three 15 min. washes with TBST followed by treatment with Pierce Supersignal West Dura developing reagent (1 min.) and exposure to Kodak Biomax X-ray film.

[4] = biological target: T3, soluble human FGFR1c/β-Klotho ECD-Fc complex (human); assay: Biacore, antibody immobilized on the sensor chip
T3 construct: Both entries start at residue 1 of the precursors; also called soluble FGF21R; soluble FGF21R-Fc
T3 sequence (chain, as listed by the source limits assumed, chain 1 of 2): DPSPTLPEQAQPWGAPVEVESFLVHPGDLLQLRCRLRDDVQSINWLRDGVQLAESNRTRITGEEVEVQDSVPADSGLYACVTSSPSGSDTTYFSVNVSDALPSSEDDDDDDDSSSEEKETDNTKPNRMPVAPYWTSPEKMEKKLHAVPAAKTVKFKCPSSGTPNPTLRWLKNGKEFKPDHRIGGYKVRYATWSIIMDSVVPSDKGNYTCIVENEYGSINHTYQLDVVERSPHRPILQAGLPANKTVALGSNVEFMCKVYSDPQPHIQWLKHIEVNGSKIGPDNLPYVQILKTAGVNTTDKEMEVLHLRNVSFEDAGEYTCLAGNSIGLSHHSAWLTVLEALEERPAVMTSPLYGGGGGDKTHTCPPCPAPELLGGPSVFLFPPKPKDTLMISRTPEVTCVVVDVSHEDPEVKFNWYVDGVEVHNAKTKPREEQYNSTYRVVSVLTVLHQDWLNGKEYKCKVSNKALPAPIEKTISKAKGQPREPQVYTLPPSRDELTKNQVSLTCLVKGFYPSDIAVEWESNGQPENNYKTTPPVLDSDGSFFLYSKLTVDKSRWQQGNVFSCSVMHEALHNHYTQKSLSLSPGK
T3 sequence (chain, as listed by the source limits assumed, chain 2 of 2): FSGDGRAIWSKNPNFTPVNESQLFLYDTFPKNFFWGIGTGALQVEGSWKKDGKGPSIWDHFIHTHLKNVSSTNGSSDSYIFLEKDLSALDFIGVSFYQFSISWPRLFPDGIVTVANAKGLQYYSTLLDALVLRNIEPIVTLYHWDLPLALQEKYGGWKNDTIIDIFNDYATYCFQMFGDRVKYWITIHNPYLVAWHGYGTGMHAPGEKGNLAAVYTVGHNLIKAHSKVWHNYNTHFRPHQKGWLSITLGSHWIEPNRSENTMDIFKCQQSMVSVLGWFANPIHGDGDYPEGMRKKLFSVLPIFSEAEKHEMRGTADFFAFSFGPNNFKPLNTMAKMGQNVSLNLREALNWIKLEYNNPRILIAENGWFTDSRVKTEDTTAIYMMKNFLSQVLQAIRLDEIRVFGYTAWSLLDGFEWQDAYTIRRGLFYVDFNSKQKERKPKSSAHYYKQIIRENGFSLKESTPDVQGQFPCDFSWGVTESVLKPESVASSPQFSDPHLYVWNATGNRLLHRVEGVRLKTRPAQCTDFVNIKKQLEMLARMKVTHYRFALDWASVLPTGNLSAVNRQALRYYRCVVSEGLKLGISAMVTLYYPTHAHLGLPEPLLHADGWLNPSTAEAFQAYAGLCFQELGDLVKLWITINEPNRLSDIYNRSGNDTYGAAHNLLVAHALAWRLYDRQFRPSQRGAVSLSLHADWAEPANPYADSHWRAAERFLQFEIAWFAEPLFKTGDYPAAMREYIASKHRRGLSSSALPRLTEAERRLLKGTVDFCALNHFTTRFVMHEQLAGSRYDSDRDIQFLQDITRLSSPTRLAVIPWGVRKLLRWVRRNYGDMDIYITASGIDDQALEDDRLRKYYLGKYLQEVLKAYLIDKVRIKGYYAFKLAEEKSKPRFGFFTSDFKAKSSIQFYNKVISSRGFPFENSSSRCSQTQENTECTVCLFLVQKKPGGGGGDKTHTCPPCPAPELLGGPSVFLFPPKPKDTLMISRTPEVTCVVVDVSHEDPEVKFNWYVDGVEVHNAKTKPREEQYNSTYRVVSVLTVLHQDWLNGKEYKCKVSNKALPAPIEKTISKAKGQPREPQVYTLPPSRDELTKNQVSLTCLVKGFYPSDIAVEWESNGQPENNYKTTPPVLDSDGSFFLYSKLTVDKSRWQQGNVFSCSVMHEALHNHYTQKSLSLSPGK
From the text: as §1

B1: 12E4 (antibody, human IgG2, kappa, V domains shown)
VH: EVQLLESGGGLVQPGGSLRLSCAASRFTFSTYAMSWVRQAPGKGLEWVSGISGSGVSTYYADSVKGRFTISRDNSKNTLYLQMNSLRAEDTAVYYCAKSLIVVIVYALDYWGQGTLVTVSS
VL: EIVLTQSPGTLSLSPGERATLSCRASQNFDSNYLAWYQQKPGQAPRLLIYGASSRATGIPDNFSGSGSGTDFTLTISRLEPEDFAMYYCQQYGSSPLTFGGGTKVEIKR
notes: fully human monoclonal antibody; full chains H8/L7; also called 12E4.1
In the case of B1, the binding result [1] is reported as “binds”, the “Activity (%) = % of FGF21 activity, luciferase reporter, AM-1/D FGFR1c+β-Klotho Luc clone; antibody combined with isotype IgG2k control” value (from here on “Activity (%) = % of FGF21 activity”) [2] is reported as 25.4 % of FGF21 activity and the binding result [3] is reported as “no binding”.

B2: 17D8 (antibody, human IgG2, kappa, V domains shown)
VH: B1 VH with S17Y, R26G, G50A, I104M, A107V
VL: B1 VL with N28S, F29V, D30S, S31G, N62R, M86V, S95A
B2: binds [1]; binds [4].

B3: 26H11 (antibody, human IgG2, kappa, V domains shown)
VH: B1 VH with S17Y, R26G, G50A, Y59N, I104M, A107V
VL: B1 VL with N28S, F29V, D30S, S31G, N62R, T103S
notes: fully human monoclonal antibody; full chains H7/L6; also called 26H11.1
B3 was tested, and the binding result [1] was “binds”, the “Activity (%) = % of FGF21 activity” value [2] was 17.9 % of FGF21 activity and the binding result [3] was “no binding”.

B4: 20D4 (antibody, human IgG2, kappa, V domains shown)
VH: QVQLVQSGAEVKKPGASVKVSCKVSGYTLTDLSMHWVRQAPGKGLEWMGGFDPEDGETIYAQKFQGRITMTEDTSTDTAYMELSSLRSEDTAVYYCASIVVVPAAIQSYYYYYGMGVWGQGTTVTVSS
VL: DIQLTQSPSSLSASIGDRVTITCRASQDIRYDLGWYQQKPGKAPKRLIYAASSLQSGVPSRFSGSGSGTEFTLTVSSLQPEDFATYYCLQHNSYPLTFGGGTKVEIER
notes: fully human monoclonal antibody; full chains H12/L12; also called 20D4.1
For B4, the binding result [1] was “binds”, the “Activity (%) = % of FGF21 activity” value [2] was 12.5 % of FGF21 activity and the binding result [3] was “no binding”.

B5: 18B11.1 (antibody, human IgG2, kappa, V domains shown)
VH: EVQLVESGGGLVKPGGSLRLSCAASGFTFSDAWMSWVRQAPGKGLEWVGRIKSKTDGGTTDYAAPVKGRFTISRDDSKNTLYLQMNSLKTEDTAVYFCTSTYSSGWYVWDYYGMDVWGQGTTVTVSS
VL: DIVMTQSPLSLPVTPGEPASISCRSSQSLLYYNGFTYLDWFLQKPGQSPHLLIYLGSNRASGVPDRFSGSVSGTDFTLKISRVEAEDVGVYYCMQSLQTPFTFGPGTKVDIKR
notes: fully human monoclonal antibody; full chains H11/L10
B5: no binding [3].
